This is an account of results in patent US20080020978A1 (Amgen, published 2008).

Bridge positions count the residues as written; N and C are the ends. Square brackets hold non-standard residues; d marks the D form. 1Nal = N[C@@H](Cc1cccc2ccccc12)C(=O)O; hArg = N=C(N)NCCCC[C@H](N)C(=O)O; hCit = NC(=O)NCCCC[C@H](N)C(=O)O; Cit = NC(=O)NCCC[C@H](N)C(=O)O

Sequences and labels used below:
B1: SEQ ID NO 895 (peptide)
peptide: Ac-WVEHRLKGLLS[Cit]SGGVVRKNFVPTDVGPFAF-NH2
modifications: lactam 3-7
SMILES: CC(=O)N[C@@H](Cc1c[nH]c2ccccc12)C(=O)N[C@H](C(=O)N[C@H]1CCC(=O)NCCCC[C@@H](C(=O)NCC(=O)N[C@@H](CC(C)C)C(=O)N[C@@H](CC(C)C)C(=O)N[C@@H](CO)C(=O)N[C@@H](CCCNC(N)=O)C(=O)N[C@@H](CO)C(=O)NCC(=O)NCC(=O)N[C@H](C(=O)N[C@H](C(=O)N[C@@H](CCCNC(=N)N)C(=O)N[C@@H](CCCCN)C(=O)N[C@@H](CC(N)=O)C(=O)N[C@@H](Cc2ccccc2)C(=O)N[C@H](C(=O)N2CCC[C@H]2C(=O)N[C@H](C(=O)N[C@@H](CC(=O)O)C(=O)N[C@H](C(=O)NCC(=O)N2CCC[C@H]2C(=O)N[C@@H](Cc2ccccc2)C(=O)N[C@@H](C)C(=O)N[C@@H](Cc2ccccc2)C(N)=O)C(C)C)[C@@H](C)O)C(C)C)C(C)C)C(C)C)NC(=O)[C@H](CC(C)C)NC(=O)[C@H](CCCNC(=N)N)NC(=O)[C@H](Cc2c[nH]cn2)NC1=O)C(C)C
B2: SEQ ID NO 889 (peptide)
peptide: Ac-WVTHRLRGELSRKGGVVRKNFVPTDVGPFAF-NH2
modifications: lactam 9-13
SMILES: CC(=O)N[C@@H](Cc1c[nH]c2ccccc12)C(=O)N[C@H](C(=O)N[C@H](C(=O)N[C@@H](Cc1c[nH]cn1)C(=O)N[C@@H](CCCNC(=N)N)C(=O)N[C@@H](CC(C)C)C(=O)N[C@@H](CCCNC(=N)N)C(=O)NCC(=O)N[C@H]1CCC(=O)NCCCC[C@@H](C(=O)NCC(=O)NCC(=O)N[C@H](C(=O)N[C@H](C(=O)N[C@@H](CCCNC(=N)N)C(=O)N[C@@H](CCCCN)C(=O)N[C@@H](CC(N)=O)C(=O)N[C@@H](Cc2ccccc2)C(=O)N[C@H](C(=O)N2CCC[C@H]2C(=O)N[C@H](C(=O)N[C@@H](CC(=O)O)C(=O)N[C@H](C(=O)NCC(=O)N2CCC[C@H]2C(=O)N[C@@H](Cc2ccccc2)C(=O)N[C@@H](C)C(=O)N[C@@H](Cc2ccccc2)C(N)=O)C(C)C)[C@@H](C)O)C(C)C)C(C)C)C(C)C)NC(=O)[C@H](CCCNC(=N)N)NC(=O)[C@H](CO)NC(=O)[C@H](CC(C)C)NC1=O)[C@@H](C)O)C(C)C
B3: SEQ ID NO 896 (peptide)
peptide: Ac-WVEHRLKGLLS[Cit]SGGVVRKNFVPTDVGPFAF-NH2
modifications: lactam 3-7
SMILES: CC(=O)N[C@@H](Cc1c[nH]c2ccccc12)C(=O)N[C@H](C(=O)N[C@H]1CCC(=O)NCCCC[C@@H](C(=O)NCC(=O)N[C@@H](CC(C)C)C(=O)N[C@@H](CC(C)C)C(=O)N[C@@H](CO)C(=O)N[C@@H](CCCNC(N)=O)C(=O)N[C@@H](CO)C(=O)NCC(=O)NCC(=O)N[C@H](C(=O)N[C@H](C(=O)N[C@@H](CCCNC(=N)N)C(=O)N[C@@H](CCCCN)C(=O)N[C@@H](CC(N)=O)C(=O)N[C@@H](Cc2ccccc2)C(=O)N[C@H](C(=O)N2CCC[C@H]2C(=O)N[C@H](C(=O)N[C@@H](CC(=O)O)C(=O)N[C@H](C(=O)NCC(=O)N2CCC[C@H]2C(=O)N[C@@H](Cc2ccccc2)C(=O)N[C@@H](C)C(=O)N[C@@H](Cc2ccccc2)C(N)=O)C(C)C)[C@@H](C)O)C(C)C)C(C)C)C(C)C)NC(=O)[C@H](CC(C)C)NC(=O)[C@H](CCCNC(=N)N)NC(=O)[C@H](Cc2c[nH]cn2)NC1=O)C(C)C
B4: SEQ ID NO 893 (peptide)
peptide: Ac-WVEHRLKGLLS[Cit]SGGVVRKNFVPTDVGPFAF-NH2
modifications: lactam 3-7
SMILES: CC(=O)N[C@@H](Cc1c[nH]c2ccccc12)C(=O)N[C@H](C(=O)N[C@H]1CCC(=O)NCCCC[C@@H](C(=O)NCC(=O)N[C@@H](CC(C)C)C(=O)N[C@@H](CC(C)C)C(=O)N[C@@H](CO)C(=O)N[C@@H](CCCNC(N)=O)C(=O)N[C@@H](CO)C(=O)NCC(=O)NCC(=O)N[C@H](C(=O)N[C@H](C(=O)N[C@@H](CCCNC(=N)N)C(=O)N[C@@H](CCCCN)C(=O)N[C@@H](CC(N)=O)C(=O)N[C@@H](Cc2ccccc2)C(=O)N[C@H](C(=O)N2CCC[C@H]2C(=O)N[C@H](C(=O)N[C@@H](CC(=O)O)C(=O)N[C@H](C(=O)NCC(=O)N2CCC[C@H]2C(=O)N[C@@H](Cc2ccccc2)C(=O)N[C@@H](C)C(=O)N[C@@H](Cc2ccccc2)C(N)=O)C(C)C)[C@@H](C)O)C(C)C)C(C)C)C(C)C)NC(=O)[C@H](CC(C)C)NC(=O)[C@H](CCCNC(=N)N)NC(=O)[C@H](Cc2c[nH]cn2)NC1=O)C(C)C
B5: SEQ ID NO 897 (peptide)
peptide: Ac-[1Nal]VEH[hArg]LKGLLS[Cit]SGGVVRKNFVPTDVGPFAF-NH2
modifications: lactam 3-7
SMILES: CC(=O)N[C@@H](Cc1cccc2ccccc12)C(=O)N[C@H](C(=O)N[C@H]1CCC(=O)NCCCC[C@@H](C(=O)NCC(=O)N[C@@H](CC(C)C)C(=O)N[C@@H](CC(C)C)C(=O)N[C@@H](CO)C(=O)N[C@@H](CCCNC(N)=O)C(=O)N[C@@H](CO)C(=O)NCC(=O)NCC(=O)N[C@H](C(=O)N[C@H](C(=O)N[C@@H](CCCNC(=N)N)C(=O)N[C@@H](CCCCN)C(=O)N[C@@H](CC(N)=O)C(=O)N[C@@H](Cc2ccccc2)C(=O)N[C@H](C(=O)N2CCC[C@H]2C(=O)N[C@H](C(=O)N[C@@H](CC(=O)O)C(=O)N[C@H](C(=O)NCC(=O)N2CCC[C@H]2C(=O)N[C@@H](Cc2ccccc2)C(=O)N[C@@H](C)C(=O)N[C@@H](Cc2ccccc2)C(N)=O)C(C)C)[C@@H](C)O)C(C)C)C(C)C)C(C)C)NC(=O)[C@H](CC(C)C)NC(=O)[C@H](CCCCNC(=N)N)NC(=O)[C@H](Cc2c[nH]cn2)NC1=O)C(C)C
B6: PEG-peptide of SEQ ID NO 886 (peptide)
peptide: WVTHXLAGLLSXSGGVVXKNFVPTDVGPFAF
modifications: Ac-WVTH[hCit]LAGLLS[hCit]SGGVV[hArg]KNFVPTDVGPFAF-NH2; PEG-conjugated (Table 2C: in most cases at Lys^25)
B7: PEG-peptide of SEQ ID NO 887 (peptide)
peptide: WVTHXLAGLLSXSGGVVXKNFVPTDVGPFAF
modifications: Ac-WVTH[hArg]LAGLLS[hCit]SGGVV[hArg]KNFVPTDVGPFAF-NH2; PEG-conjugated (Table 2C: in most cases at Lys^25)
B8: SEQ ID NO 890 (peptide)
peptide: Ac-WVEHRLEGLLKRSGGVVRKNFVPTDVGPFAF-NH2
modifications: lactam 7-11
SMILES: CC(=O)N[C@@H](Cc1c[nH]c2ccccc12)C(=O)N[C@H](C(=O)N[C@@H](CCC(=O)O)C(=O)N[C@@H](Cc1c[nH]cn1)C(=O)N[C@@H](CCCNC(=N)N)C(=O)N[C@@H](CC(C)C)C(=O)N[C@H]1CCC(=O)NCCCC[C@@H](C(=O)N[C@@H](CCCNC(=N)N)C(=O)N[C@@H](CO)C(=O)NCC(=O)NCC(=O)N[C@H](C(=O)N[C@H](C(=O)N[C@@H](CCCNC(=N)N)C(=O)N[C@@H](CCCCN)C(=O)N[C@@H](CC(N)=O)C(=O)N[C@@H](Cc2ccccc2)C(=O)N[C@H](C(=O)N2CCC[C@H]2C(=O)N[C@H](C(=O)N[C@@H](CC(=O)O)C(=O)N[C@H](C(=O)NCC(=O)N2CCC[C@H]2C(=O)N[C@@H](Cc2ccccc2)C(=O)N[C@@H](C)C(=O)N[C@@H](Cc2ccccc2)C(N)=O)C(C)C)[C@@H](C)O)C(C)C)C(C)C)C(C)C)NC(=O)[C@H](CC(C)C)NC(=O)[C@H](CC(C)C)NC(=O)CNC1=O)C(C)C

Chain of CGRP1 receptor (CRLR/RAMP1 complex) of human neuroblastoma SK-N-MC cells (Q16602 23-461, chain 1 of 2): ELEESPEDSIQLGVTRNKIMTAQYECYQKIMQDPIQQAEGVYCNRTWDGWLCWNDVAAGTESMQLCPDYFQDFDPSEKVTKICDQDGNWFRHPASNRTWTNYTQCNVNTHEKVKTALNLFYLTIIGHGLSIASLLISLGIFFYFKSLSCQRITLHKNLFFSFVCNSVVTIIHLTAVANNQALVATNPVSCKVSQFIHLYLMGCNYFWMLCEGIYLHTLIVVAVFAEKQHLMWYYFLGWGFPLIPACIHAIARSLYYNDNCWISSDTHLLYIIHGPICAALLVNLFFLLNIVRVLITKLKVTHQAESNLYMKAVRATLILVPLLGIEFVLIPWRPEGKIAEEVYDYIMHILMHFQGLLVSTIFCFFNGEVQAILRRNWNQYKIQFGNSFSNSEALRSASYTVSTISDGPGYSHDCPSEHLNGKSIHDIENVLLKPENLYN
Chain of CGRP1 receptor (CRLR/RAMP1 complex) of human neuroblastoma SK-N-MC cells (O60894 27-148, chain 2 of 2): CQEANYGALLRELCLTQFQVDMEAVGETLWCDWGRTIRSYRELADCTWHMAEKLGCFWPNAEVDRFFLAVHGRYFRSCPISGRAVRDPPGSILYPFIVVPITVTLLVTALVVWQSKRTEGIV

This assay addresses CGRP1 receptor (CRLR/RAMP1 complex) of human neuroblastoma SK-N-MC cells (human, UniProt Q16602 23-461; O60894 27-148). Description: cell-based or functional assay.
Regarding Ac-WVEH[hArg]LKGLLS[Cit]SGGVVRKNFVPTDVGPFAF-NH2 (lactam 3-7; also: PEG-conjugated, in most cases at Lys25) [PEG-peptide of SEQ ID NO 894], the “PEG-peptide IC50” value worked out at 3.54 nM.
On the same count and under the same terms, under Ac-[1Nal]VEH[hArg]LKGLLS[Cit]SGGVVRKNFVPTDVGPFAF-NH2 (lactam 3-7; also: PEG-conjugated, in most cases at Lys25) [PEG-peptide of SEQ ID NO 897] stands 4.1 nM; under Ac-WVEHRLEGLLKRSGGVVRKNFVPTDVGPFAF-NH2 (lactam 7-11; also: PEG-conjugated, in most cases at Lys25) [PEG-peptide of SEQ ID NO 890], 2.86 nM.
Ac-WVEH[hArg]LKGLLS[Cit]SGGVVRKNFVPTDVGPFAF-NH2 (lactam 3-7) [SEQ ID NO 894]: the “Peptide IC50” value came out at 1.26 nM.
Same read-out and setting: as for B1, the figure is 2.8 nM; as for B2, 0.94 nM.
For B3, the “Peptide IC50” value was 1.61 nM.
Still for that read-out and setting: as for B4, the figure is 1.64 nM.
With Ac-WVEHRLKGLLSRSGGVVRKNFVPTDVGPFAF-NH2 (lactam 3-7; also: PEG-conjugated, in most cases at Lys25) [PEG-peptide of SEQ ID NO 891], the “PEG-peptide IC50” value came to 3.71 nM.
For the molecule Ac-WVTH[hCit]LAGLLS[hArg]SGGVV[hArg]KNFVPTDVGPFAF-NH2 (also: PEG-conjugated, in most cases at Lys25) [PEG-peptide of SEQ ID NO 888], the “PEG-peptide IC50” value is 2.11 nM.
As for Ac-WVEHRLKGLLSRSGGVVRKNFVPTDVGPFAF-NH2 (lactam 3-7) [SEQ ID NO 891], the “Peptide IC50” value was 1.47 nM.
On the same count and under the same terms, under B5 stands 2.25 nM; under Ac-WVEHRLKGELSRKGGVVRKNFVPTDVGPFAF-NH2 (lactam 9-13, 3-7) [SEQ ID NO 892], 1.11 nM.
With B6, the “PEG-peptide IC50” value is 22.7 nM.
On to B7, for which the “PEG-peptide IC50” value is 6.3 nM.
Regarding WVTHXLAGLLSXSGGVVXKNFVPTDVGPFAF (Ac-WVTH[hArg]LAGLLS[hCit]SGGVV[hArg]KNFVPTDVGPFAF-NH2) [SEQ ID NO 887], the “Peptide IC50” value stood at 3.14 nM.
Consider B8, for which the “Peptide IC50” value was 1.7 nM.
